Results: patent US20050069541A1, “Composition for and treatment of demyelinating diseases and paralysis by administration of remyelinating agents” (priority 2003, published 2005)

What was measured:
[1] = target: α4 integrin (Homo sapiens, UniProt P05556+P13612); test: Inhibition of cell adhesion to VCAM; type: cell-based, human and guinea pig; settings: 100% serum; read-out: IC50 for inhibition of cell adhesion to high density VCAM-1 in the presence of 100% serum
[2] = test system: brain and spinal cord of EAE guinea pigs; test: Chronic EAE: histology and blinded pathological scoring of brain and spinal cord sections (H-E, SCR); type: in vivo, guinea pig; settings: versus saline; listed as N-[N-(3-pyridinesulfonyl)-L-3,3-dimethyl-4-thiaprolyl]-O-[1-methylpiperzain-4-yl
Method: Animal Sacrifice and Histological Analysis. Untreated, chronic EAE animals (n=5) were sacrificed on day 40, as well as non-EAE controls (n=5). Following each 10-day treatment interval, 5 animals from each group were sacrificed (0.25 mL sodium pentobarbital), blood samples were collected for FACS analysis (see below), and the brain and spinal cord dissected and sectioned. Three spinal sections were used, corresponding to lumbar, thoracic and cervical regions of the cord. The brain was cut into five transverse sections. The first three proximal sections were combined in one block, and the last two distal sections in another. Tissues were fixed in 10% formalin and embedded in paraffin. […] sections were stained with hematoxylin-eosin (H-E) or solochrome-R-cyanlin (SCR) and evaluated by a blinded observer in each of four categories: (1) meningeal inflammation, (2) perivascular infiltration, (3) encephalitis or (4) myelitis and demyelination (Table 6). The combined pathological score represents the total score (out of a potential 20) from all 5 CNS sections in each animal.

[3] = test system: infiltrating cells in spinal cord; test: Chronic EAE: mean cell counts in spinal cord (H-E sections, 0.12 mm^2 fields); type: in vivo, guinea pig; settings: listed as N-[N-(3-pyridinesulfonyl)-L-3,3-dimethyl-4-thiaprolyl]-O-[1-methylpiperzain-4-yl
Method: To quantify the abnormalities observed in the spinal cord, sections stained with H-E were divided into 12 representative pie-shaped areas. In each area, the number of cells within a 0.12 mm^2 field of view was counted using Sigma Scan Pro image analysis software (SPSS Inc.), and the combined mean number of cells in all 12 areas was calculated for the whole spinal cord (36 fields of view per animal). Note that as all cell nuclei were counted, the number of cells may include neurons and glial cells in addition to infiltrates.

[4] = test system: IL-2, IL-10, MCP-1 RNA; test: Chronic EAE: quantitative RT-PCR of spinal cord; type: in vivo, guinea pig; settings: 10 days after withdrawal; listed as N-[N-(3-pyridinesulfonyl)-L-3,3-dimethyl-4-thiaprolyl]-O-[1-methylpiperzain-4-yl
Method: Quantitative Reverse Transcription-PCR: IL-2, IL-10, MCP-1. RNA was isolated from 30 mg of frozen guinea pig spinal cord using the S.N.A.P.™ (simple nucleic acid preparation) total RNA Isolation Kit (Invitrogen) according to manufacturer's instructions, modified to include a second DNAse treatment step followed by an additional purification over the S.N.A.P. column.
Primer/probe sequences and concentrations for IL-2, IL-10, and MCP-1 are given in Table 7, as well as the standard RNA used for each gene. RT-PCR was carried out in triplicate using the ABI PRISM® 7700 Sequence Detection System. 50 μl reactions contained 10 to 800 ng of total RNA and primers and probes at the concentrations indicated above in reaction buffer consisting of 6.67% glycerol (Amresco); 5.5 mM MgCl; 300 μM DATP, dCTP, dGTP, and dUTP; 100 nM probe; 1.25 unit of AmpliTaq Gold® DNA Polymerase (Applied Biosystems); 1× TaqMan® Buffer A (TaqMan® PCR Core reagents kit, Applied Biosystems), 20 units of RNase Inhibitor (Roche); 1.25 unit of murine leukemia virus (MuLV) Reverse Transcriptase (Applied Biosystems). Reverse-transcription of RNA was carried out at 48° C. for 30 min., followed by a 10 min. denaturing step at 95° C. PCR was carried out by 40 thermo-cycles consisting of 95° C. for 15 seconds followed by 60° C. for 1 minute. Each plate included a standard curve using the standard RNA listed in Table 7 and two additional control samples: 1) a positive control RNA sample used on all plates, 2) a non-template control (NTC).
The correlation coefficients of the standard curves were greater than 0.990 for all data shown. The coefficients of variation for sample triplicates were less than 0.2. Since the RNA used for the standard curve is a heterogeneous mix of RNA containing a constant but unknown amount of the target message, the numbers calculated are relative.

[5] = test system: spinal cord lesions of paralyzed EAE guinea pigs; test: Example 2: spontaneous remyelination in chronic EAE (SCR, toluidine blue, EM, lesion area analysis, motor function); type: in vivo, guinea pig
[6] = test system: EAE in female Hartley guinea pigs; settings: listed as N-[N-(3-pyridinesulfonyl)-L-3,3-dimethyl-4-thiaprolyl]-O-[1-methylpiperzain-4-yl
[7] = target: β1 integrin (human) (human) (UniProt P05556)
[8] = target: β1 integrin (human) (human) (UniProt P05556); remark: listed apart in the source
[9] = target: α6 integrin (human) (human) (UniProt P23229)
[10] = target: α4 integrin (human) (human) (UniProt P13612)
[11] = target: α4 integrin (human) (human) (UniProt P13612); remark: listed apart in the source
[12] = target: α4 integrin (rat) (rat)
[13] = target: α4 integrin (human) (human) (UniProt P13612); remark: listed apart in the source
[14] = target: α4 integrin (human) (human) (UniProt P13612); remark: listed apart in the source
[15] = target: α4 integrin (human) (human) (UniProt P13612); remark: listed apart in the source
[16] = target: Mac-1 (human) (human) (UniProt P11215)
[17] = target: L-selectin (mouse) (mouse) (UniProt P18337)
[18] = target: CD45 (rat) (rat) (UniProt P04157)
[19] = target: Thy 1.1 (rat) (rat) (UniProt P01830)
[20] = target: CD2 (rat) (rat) (UniProt P08921)
[21] = target: CD4 (rat) (rat) (UniProt P05540)
[22] = target: monocyte/T cell surface antigen (rat) (rat)
[23] = target: LFA-1 (rat) (rat)
[24] = target: α4 integrin (mouse) (mouse) (UniProt Q00651)
[25] = target: β2 integrin (human) (human) (UniProt P05107)
[26] = target: α4 integrin (human) (human) (UniProt P13612); remark: listed apart in the source
[27] = target: T1, VLA-4 (Homo sapiens, UniProt P05556+P13612); settings: cited from earlier work
T1 construct: endogenous in cells; host or cells: Jurkat cells

[28] = test system: human lymphocytes; settings: cited from earlier work

Cc1ccc(S(=O)(=O)N2CCC[C@H]2C(=O)N[C@@H](Cc2ccc(OC(=O)N3CCN(CCO)CC3)cc2)C(=O)OC(C)(C)C)cc1
melting point: 158 to 160 °C

CC(C)OC(=O)[C@H](Cc1ccc(OC(=O)N2CCN(C)CC2)cc1)NC(=O)[C@H]1N(S(=O)(=O)c2cccnc2)CSC1(C)C [Example 381, N-[N-(3-pyridinesulfonyl)-L-3,3-dimethyl-4-thiaprolyl]-O-[1-methylpiperazin-4-ylcarbonyl]-L-tyrosine isopropyl ester]
IC50 [1]: 1 to 10 nM
spinal cord histology after 20 days of treatment (day 60) [2]: much smaller area of demyelination
spinal cord histology after 40 days of treatment (day 80) [2]: almost no meningeal and perivascular inflammation
cell number in spinal cord versus saline-treated animals ([3]; after 10, 20, 30 or 40 days, p<0.001 two-way ANOVA): fewer cells
mean cell count after removal of compound for 10 days versus continuous treatment ([3]; p<0.05): significantly increased
cytokine RNA after withdrawal of compound [4]: rose to levels comparable to those in saline-treated animals
SCR-stained spinal cord lesions after 20 days of treatment ([5]; 20 days, listed as N-[N-(3-pyridinesulfonyl)-L-3,3-dimethyl-4-thiaprolyl]-O-[1-methylpiperzain-4-yl): lesions with a diffuse blue stain covering the plaque
SCR-stained spinal cord lesions after 40 days of treatment ([5]; 40 days, listed as N-[N-(3-pyridinesulfonyl)-L-3,3-dimethyl-4-thiaprolyl]-O-[1-methylpiperzain-4-yl): majority of lesions showed clear myelin pallor
percentage of remyelination (mean percent of lesion area with myelin pallor) ([5]; after 20, 30 or 40 days of therapy): 50%
semithin and EM sections of lesions ([5]; day 30 of treatment, listed as N-[N-(3-pyridinesulfonyl)-L-3,3-dimethyl-4-thiaprolyl]-O-[1-methylpiperzain-4-yl): multiple layers of thin myelin wrappings around large diameter axons indicative of remyelination
incidence of remyelination (lesions with myelin pallor) versus saline ([5]; time-dependent): increased the incidence of remyelination
mean clinical score day 70-80 after withdrawal (30 days treatment, 10 days off) versus continuous treatment ([6]; n=5, p<0.05 Mann Whitney): significantly higher
escape from treatment ([6]; up to 40 days of treatment): no escape from treatment
adverse side effects during prolonged administration ([6]; up to 40 days, 30 mg/kg 2x/day s.c., guinea pig, 30 mg/kg): no adverse side effects

AIIB2 (antibody)
Relative Binding to EAE Vessels (% of control) [7]: 8 % of control
Relative Binding to EAE Vessels (% of Control), human lymphocytes [8]: 7 % of Control

GoH3 (antibody)
Relative Binding to EAE Vessels (% of control) [9]: 88 % of control

HP1/7 (antibody)
Relative Binding to EAE Vessels (% of control) [10]: 338 % of control

HP2/1 (antibody)
Relative Binding to EAE Vessels (% of control) [10]: 3 % of control
Relative Binding to EAE Vessels (% of Control), human lymphocytes [11]: 0 % of Control
Relative Binding to EAE Vessels (% of Control), rat lymphocytes [12]: 18 % of Control
% Input Binding Jurkat to TNFα-stimulated rat brain EC clone [13]: 6 % input
% Input Binding Ramos to VCAM-1 transfected L cells [14]: 0 % input
Jurkat binding to FN-coated plate (% inhibition) [15]: 47 % inhibition

LM2/1 (antibody)
Relative Binding to EAE Vessels (% of control) [16]: 107 % of control

MEL-14 (antibody)
Relative Binding to EAE Vessels (% of Control), mouse lymphocytes [17]: 92 % of Control

OX-1 (antibody)
Relative Binding to EAE Vessels (% of Control), rat lymphocytes [18]: 90 % of Control

OX-7 (antibody)
Relative Binding to EAE Vessels (% of Control), rat lymphocytes [19]: 87 % of Control

OX-34 (antibody)
Relative Binding to EAE Vessels (% of Control), rat lymphocytes [20]: 100 % of Control

OX-35 (antibody)
Relative Binding to EAE Vessels (% of Control), rat lymphocytes [21]: 107 % of Control

OX-44 (antibody)
Relative Binding to EAE Vessels (% of Control), rat lymphocytes [22]: 102 % of Control

OX-52 (antibody)
Relative Binding to EAE Vessels (% of Control), rat lymphocytes [23]: 87 % of Control

P4G9 (antibody)
Relative Binding to EAE Vessels (% of control) [10]: 151 % of control

R1-2 (antibody)
Relative Binding to EAE Vessels (% of Control), mouse lymphocytes [24]: 43 % of Control

TS1/18 (antibody)
Relative Binding to EAE Vessels (% of control) [25]: 98 % of control

B1: TY21.6 (antibody, V domains shown)
VH: EVQLQQSGAELVKPGASVKLSCTASGFNIKDTYIHCVKQRPEQGLEWIGRIDPANGYTKYDPKFQGKATITADTSSNTAYLQLSSLTSEDTAVYFCAREGYYGNYGVYAMDYWGQGTSVTVSS
VL: DIQMTQSPSSLSASLGGKVTITCKTSQDINKYMAWYQHKPGKRPRLLIHYTSALQPGIPSRFSGSGSGRDYSFNISNLEPEDIATYYCLQYDNLWTFGGGTKLEIK
% Input Binding Jurkat to TNFα-stimulated rat brain EC clone [13]: 8 % input
% Input Binding Ramos to VCAM-1 transfected L cells [14]: 1 % input
Binding of U937 cells to inflamed vessels in sections of EAE brain [26]: 0
Jurkat binding to FN-coated plate (% inhibition) [15]: 45 % inhibition
binding affinity for VLA-4 [27]: about 10^9 M^−1
human lymphocyte binding to TNF-stimulated rat brain cell cultures [28]: inhibit human lymphocyte binding
